According to patent US20210190798A1, “METHODS OF QUANTIFYING LIF AND USES THEREOF” (MEDIMMUNE LIMITED, priority 2018, published 2021):

Molecular target: LIF (Homo sapiens, UniProt P15018)
Experiment: Competitive binding assays against LIF (capture antibody screening)
Method: The capture antibody A4 (set forth in SEQ ID NOs: 41 and 42) was determined by screening potential antibodies using competitive binding assays against LIF.

LIF, sequence (P15018 23-202): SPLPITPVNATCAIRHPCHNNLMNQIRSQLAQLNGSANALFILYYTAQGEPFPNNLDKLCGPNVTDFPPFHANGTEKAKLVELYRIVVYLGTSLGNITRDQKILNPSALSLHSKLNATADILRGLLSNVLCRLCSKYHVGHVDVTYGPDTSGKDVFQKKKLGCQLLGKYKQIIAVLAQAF

binding to LIF: high binding
interference with binding by therapeutic antibody h5D8 or M017C3: did not interfere
B1: A4: rabbit monoclonal anti-LIF capture antibody, variable regions SEQ ID NOs: 41 and 42 (antibody, V domains shown)
VH: EQLEESVGDLVKPGASLTLTCTASGFSFSGLYYMCWVRQAPGKGLEWIACIWTGSTDSTYYATWAKGRFTISKTSSTTVTLQMTSLTVADTATYFCARGGGVPGDGYALWGPGTLVTVSS
VL: GTELVMTQTPASVSEPVGGTVTINCQASEDISSNLVWYQQKSGQPPKLLIYDASMLASGVPSRFKGSGSGTQFTLTISDLECADGATYYCQSYYVASSSYFVNGFGGGTEVV
